One series has as its system EPSPS enzymes. Kind of series: Kinetic characterization of EPSPS enzymes (Km PEP, Ki glyphosate). In kind it is biochemical. Conditions: for Ki/Km: Ki glyphosate / Km PEP; for Km: Km of the EPSPS enzyme for phosphoenolpyruvate, PEP ranges tested in table footnotes. As for the experimental part:
The EPSPS enzymes from these microorganisms were then subjected to further study and analysis.
When the change introduced into the Petunia EPSPS (GA101) was introduced into a number of other EPSPS enzymes, similar changes in kinetics were observed, an elevation of the Ki for glyphosate and of the Km for PEP.
All protein purification procedures were carried out at 3–5° C. EPSPS enzyme assays were performed using either the phosphate release or radioactive HPLC method, as previously described in Padgette et al., 1987, using 1 mM phosphoenol pyruvate (PEP, Boehringer) and 2 mM shikimate-3-phosphate (S3P) substrate concentrations. For radioactive HPLC assays, ^14C-PEP (Amersham) was utilized. S3P was synthesized as previously described in Wibbenmeyer et al. 1988. N-terminal amino acid sequencing was performed by loading samples onto a Polybrene precycled filter in aliquots while drying. Automated Edman degradation chemistry was used to determine the N-terminal protein sequence, using an Applied Biosystems Model 470A gas phase sequencer (Hunkapiller et al., 1983) with an Applied Biosystems 120A PTH analyzer.

Series [1] has as its system rabbit anti-EPSPS antibody. As to the kind of experiment: Western analysis with rabbit anti-EPSPS antibody to the Petunia EPSPS protein. Conditions: crude extracts 50 μg protein; control Petunia EPSPS 20 ng; Protein A-125I development. In kind it is binding. From the text: The presence of EPSPS activity in these extracts was confirmed by enzyme assay. This surprising result, indicating a lack of similarity between the EPSPS's from these bacterial isolates and those previously studied, coupled with the combination of a low Km for PEP and a high Ki for glyphosate, illustrates that these new EPSPS enzymes are different from known EPSPS enzymes (now referred to as Class I EPSPS).

The next series concerns the target T1, CP4 EPSPS (Agrobacterium sp., UniProt Q9R4E4, S2A).
T1 construct: made in house; host or cells: E. coli, PRecA-gene10L vector
Kind of series: EPSPS activity from native and synthetic CP4 EPSPS genes expressed in E. coli. In kind it is biochemical, Agrobacterium sp. strain CP4. From the text:
A synthetic CP4 gene was designed to change as completely as possible those inimical sequences discussed above. In summary, the gene sequence was redesigned to eliminate as much as possible the following sequences or sequence features (while avoiding the introduction of unnecessary restriction sites): stretches of G's and C's of 5 or greater; and A+T rich regions (predominantly) that could function as polyadenylation sites or potential RNA destabilization region The sequence of this gene is shown in FIG. 8 (SEQ ID NO:9). This coding sequence was expressed in E. coli from the RecA promoter and assayed for EPSPS activity and compared with that from the native CP4 EPSPS gene. […] The N-terminus of the coding sequence was mutagenized to place an SphI site at the ATG to permit the construction of the CTP2-CP4 synthetic fusion for chloroplast import. The following primer was used to accomplish this mutagenesis:
The EPSPS gene was isolated originally from Agrobacterium sp. strain CP4 and expresses a highly tolerant enzyme. The original gene contains sequences that could be inimical to high expression of the gene in some plants. […] The high G+C % in the CP4 EPSPS gene could also result in the formation of strong hairpin structures that may affect expression or stability of the RNA. A plant preferred version of the gene was synthesized and used for these vectors. This coding sequence was expressed in E. coli from a PRecA-gene10L vector (Olins et al., 1988) and the EPSPS activity was compared with that from the native CP4 EPSPS gene. […] The N-terminus of the coding sequence was then mutagenized to place an SphI site (GCATGC) at the ATG to permit the construction of the CTP2-CP4 synthetic fusion for chloroplast import. This change had no apparent effect on the in vivo activity of CP4 EPSPS in E. coli as judged by complementation of the aroA mutant. A CTP-CP4 EPSPS fusion was constructed between the Arabidopsis thaliana EPSPS CTP (Klee et al., 1987) and the CP4 EPSPS coding sequences. The Arabidopsis CTP was engineered by site-directed mutagenesis to place a SphI restriction site at the CTP processing site. This mutagenesis replaced the Glu-Lys at this location with Cys-Met. The CTP2-CP4 EPSPS fusion was tested for import into chloroplasts isolated from Lactuca sativa using the methods described previously (della-Cioppa et al., 1986: 1987).

A further series deals with T2, B. subtilis EPSPS (Bacillus subtilis, UniProt P20691).
T2 construct: Standard EPSPS assay reactions contained crude bacterial extract; endogenous in cells; host or cells: Bacillus subtilis 1A2 crude extract; some values from E. coli GB100 carrying pMON21133 (subclone) or pMON21132 (PCR clone)
Kind of series: EPSPS assay and kinetics of B. subtilis EPSPS in crude bacterial extract. In kind it is biochemical. Conditions: for EPSPS specific activity: crude extract. As to the method:
Bacillus subtilis 1A2 (prototroph) was obtained from the Bacillus Genetic Stock Center at Ohio State University. Standard EPSPS assay reactions contained crude bacterial extract with, 1 mM phosphoenolpyruvate (PEP), 2 mM shikimate-3-phosphate (S3P), 0.1 mM ammonium molybdate, 5 mM potassium fluoride, and 50 mM HEPES, pH 7.0 at 25° C. One unit (U) of EPSPS activity is defined as one μmol EPSP formed per minute under these conditions. For kinetic determinations, reactions contained crude bacterial, 2 mM S3P, varying concentrations of PEP, and 50 mM HEPES, pH 7.0 at 25° C. […] When the assays were performed in the presence of 1 mM glyphosate, 100% of the EPSPS activity was retained. The appKm(PEP) of the B. subtilis EPSPS was determined by measuring the reaction velocity at varying concentrations of PEP. The results were analyzed graphically by the hyperbolic, Lineweaver-Burk and Eadie-Hofstee plots which yielded appKm(PEP) values of 15.3 μM, 10.8 μM and 12.2 μM, respectively. These three data treatments are in good agreement, and yield an average value for appKm(PEP) of 13 μM. The appKi(glyphosate) was estimated by determining the reaction rates of B. subtilis 1A2 EPSPS in the presence of several concentrations of glyphosate, at a PEP concentration of 2 μM.
The other approach to the isolation of the B. subtilis aroE gene, subcloning from ECE13 into pUC118, was performed as follows: • (i) Cut ECE13 and pUC with XmaI and SphI. • (ii) Isolate 1700 bp aroE fragment and 2600 bp pUC118 vector fragment. • (iii) Ligate fragments and transform into GB100. The subclone was designated pMON21133 and the PCR-derived clone was named pMON21132. Clones from both approaches were first confirmed for complementation of the aroA mutation in E. coli GB100. […] These specific activities reflect the expected types of expression levels of the two vectors. […] The appKm(PEP) and the appKi(glyphosate) of the subcloned B. subtilis EPSPS (pMON21133) were determined as described above. […] Characterization of the EPSPS Gene from Staphylococcus aureus

[2] abbreviates: 1 mM PEP, 2 mM S3P, pH 7.0, 25° C.
Setting [3] is: 2 mM S3P, varying PEP, pH 7.0, 25° C.

T1 sequence (Q9R4E4 whole entry S2A): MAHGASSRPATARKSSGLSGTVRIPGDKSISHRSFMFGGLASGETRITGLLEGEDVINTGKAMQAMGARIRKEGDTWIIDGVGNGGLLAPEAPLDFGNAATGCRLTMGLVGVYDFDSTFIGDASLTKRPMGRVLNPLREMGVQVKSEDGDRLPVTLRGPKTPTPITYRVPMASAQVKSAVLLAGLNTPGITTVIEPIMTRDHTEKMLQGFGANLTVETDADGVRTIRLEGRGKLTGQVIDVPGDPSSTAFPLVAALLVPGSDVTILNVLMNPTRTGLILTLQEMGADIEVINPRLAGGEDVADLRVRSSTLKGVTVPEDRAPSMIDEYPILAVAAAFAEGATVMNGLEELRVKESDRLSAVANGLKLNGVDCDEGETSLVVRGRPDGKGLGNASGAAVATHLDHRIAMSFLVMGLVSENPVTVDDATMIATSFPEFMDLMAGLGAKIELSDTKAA

B1: PG2982: Class II EPSPS enzyme from Pseudomonas sp. strain PG2982 (SEQ ID NO:7) (protein, listed as Pseudomonas sp.)
chain: MSHSASPKPATARRSEALTGEIRIPGDKSISHRSFMFGGLASGETRITGLLEGEDVINTGRAMQAMGAKIRKEGDVWIINGVGNGCLLQPEAALDFGNAGTGARLTMGLVGTYDMKTSFIGDASLSKRPMGRVLNPLREMGVQVEAADGDRMPLTLIGPKTANPITYRVPMASAQVKSAVLLAGLNTPGVTTVIEPVMTRDHTEKMLQGFGADLTVETDKDGVRHIRITGQGKLVGQTIDVPGDPSSTAFPLVAALLVEGSDVTIRNVLMNPTRTGLILTLQEMGADIEVLNARLAGGEDVADLRVRASKLKGVVVPPERAPSMIDEYPVLAIAASFAEGETVMDGLDELRVKESDRLAAVARGLEANGVDCTEGEMSLTVRGRPDGKGLGGGTVATHLDHRIAMSFLVMGLAAEKPVTVDDSNMIATSFPEFMDMMPGLGAKIELSIL
By Km is commonly meant the substrate concentration at which the rate is half of its maximum. Take B1: in the series on EPSPS enzymes, the Ki/Km was ~8–40 and the Km was 2.1 to 3.1 µM.

B2: Petunia: native Petunia EPSPS, a Class I EPSPS (protein)
chain: KPSEIVLQPIKEISGTVKLPGSKSLSNRILLLAALSEGTTVVDNLLSSDDIHYMLGALKTLGLHVEEDSANQRAVVEGCGGLFPVGKESKEEIQLFLGNAGTAMRPLTAAVTVAGGNSRYVLDGVPRMRERPISDLVDGLKQLGAEVDCFLGTKCPPVRIVSKGGLPGGKVKLSGSISSQYLTALLMAAPLALGDVEIEIIDKLISVPYVEMTLKLMERFGISVEHSSSWDRFFVRGGQKYKSPGKAFVEGDASSASYFLAGAAVTGGTITVEGCGTNSLQGDVKFAEVLEKMGAEVTWTENSVTVKGPPRSSSGRKHLRAIDVNMNKMPDVAMTLAVVALYADGPTAIRDVASWRVKETERMIAICTELRKLGATVEEGPDYCIITPPEKLNVTDIDTYDDHRMAMAFSLAACADVPVTINDPGCTRKTFPNYFDVLQQYSKH
modifications: Petunia x hybrida
For B2, in the series on EPSPS enzymes, the Ki/Km was determined as 0.08 and the Km stood at 5 µM. The “signal in Western analysis with rabbit anti-EPSPS antibody” value in series [1] is recorded as “readily detected”.

B3: synthetic CP4 gene: EPSPS enzyme expressed in E. coli from the synthetic CP4 gene (SEQ ID NO:9) (protein, UniProt Q9R4E4 1-455, looked up)
3-phosphoshikimate …: MSHGASSRPATARKSSGLSGTVRIPGDKSISHRSFMFGGLASGETRITGLLEGEDVINTGKAMQAMGARIRKEGDTWIIDGVGNGGLLAPEAPLDFGNAATGCRLTMGLVGVYDFDSTFIGDASLTKRPMGRVLNPLREMGVQVKSEDGDRLPVTLRGPKTPTPITYRVPMASAQVKSAVLLAGLNTPGITTVIEPIMTRDHTEKMLQGFGANLTVETDADGVRTIRLEGRGKLTGQVIDVPGDPSSTAFPLVAALLVPGSDVTILNVLMNPTRTGLILTLQEMGADIEVINPRLAGGEDVADLRVRSSTLKGVTVPEDRAPSMIDEYPILAVAAAFAEGATVMNGLEELRVKESDRLSAVANGLKLNGVDCDEGETSLVVRGRPDGKGLGNASGAAVATHLDHRIAMSFLVMGLVSENPVTVDDATMIATSFPEFMDLMAGLGAKIELSDTKAA
On to B3, for which the “appKm for PEP” value with CP4 EPSPS (expressed in E. coli from a PRecA-gene10L vector) is 12.7 µM. Also, in the series with CP4 EPSPS (expressed in E. coli from the RecA promoter, read-out: apparent Km for PEP), the Km came out at 12.7 µM.

B4: pMON21133: B. subtilis EPSPS (aroE) subcloned from ECE13 into pUC118, expressed in E. coli GB100 (protein, UniProt P54374 1-280, looked up)
Shikimate dehydrogenase …: MKKLYGVIGNPIGHSMSPDIHNASLKDLGLDGHYHAFKVEENDLEDAVKGIRALGVQGINVTVPHKVSIMDYLDHIDESAKVLGAVNTVRREGDKLVGYNTDGEGFVKSLMKVLDKPISELSFLMIGAGGAARAIFTTIVRNTPKKFDICNRTLEKAKRLTEATPSFHNKEVLSIKEAEERLEQYDVIIHTTSVGMYPNVDDVPLSLQRAASSAVVCDIVYNPIQTALLKEASQKGLKTLDGVGMFVEQAALSFQLWTGQEPNIEKMRSIVIGKLGGTEC
For the molecule B4, the EPSPS specific activity in the series with B. subtilis EPSPS (setting [2]) came to 0.044 U/mg.

B5: pMON21132: B. subtilis EPSPS from the PCR-derived aroE clone, expressed in E. coli GB100 (protein, UniProt P54374 1-280, looked up)
Shikimate dehydrogenase …: B4 Shikimate dehydrogenase …
For B5, in the series with B. subtilis EPSPS (setting [2]), the EPSPS specific activity turned out to be 0.71 U/mg.

B6: B. subtilis 1A2: Class II EPSPS from Bacillus subtilis 1A2 (SEQ ID NO:42) (protein, listed as Bacillus subtilis)
chain: MKRDKVQTLHGEIHIPGDKSISHRSVMFGALAAGTTTVKNFLPGADCLSTIDCFRKMGVHIEQSSSDVVIHGKGIDALKEPESLLDVGNSGTTIRLMLGILAGRPFYSAVAGDESIAKRPMKRVTEPLKKMGAKIDGRAGGEFTPLSVSGASLKGIDYVSPVASAQIKSAVLLAGLQAEGTTTVTEPHKSRDHTERMLSAFGVKLSEDQTSVSIAGGQKLTAADIFVPGDISSAAFFLAAGAMVPNSRIVLKNVGLNPTRTGIIDVLQNMGAKLEIKPSADSGAEPYGDLIIETSSLKAVEIGGDIIPRLIDEIPIIALLATQAEGTTVIKDAAELKVKETNRIDTVVSELRKLGAEIEPTADGMKVYGKQTLKGGAAVSSHGDHRIGMMLGIASCITEEPIEIEHTDAIHVSYPTFFEHLNKLSKKS
On to B6, for which, in the series with EPSPS enzymes, the Ki/Km came out at 33.8 and the Km is 13 µM. In the series with B. subtilis EPSPS (1 mM glyphosate, 1 mM PEP, 2 mM S3P), the “EPSPS activity retained in the presence of 1 mM glyphosate” value stood at 100%. Also, in the series with B. subtilis EPSPS (setting [3]), the “appKm(PEP), Eadie-Hofstee plot” value worked out at 12.2 µM; the “appKm(PEP), Lineweaver-Burk plot” value came out at 10.8 µM; the “appKm(PEP), hyperbolic plot” value was found to be 15.3 µM. Further, the “average value for appKm(PEP)” value with B. subtilis EPSPS (average of three data treatments) was determined as 13 µM. The same molecule came in with an EPSPS specific activity in the series with B. subtilis EPSPS (setting [2]) of 0.003 U/mg.

The values above are taken from patent US7183110B2, “Antibody immunoreactive with a 5-enolpyruvylshikimate-3-phosphate synthase” (Monsanto Technology LLC, priority 1990, dated 2007).
